Values belong to the binder of their own block, whether it stands above or below them.
Tests used:
[1] = molecular target: T1, human B-cell maturation antigen (BCMA) (human, UniProt Q02223 1-184); assay: standard IHC (Envision FLEX) on reactive lymph node
T1 construct: whole, on cells; Endogenous BCMA in tissue sections and BCMA-positive cell lines; also called tumor necrosis factor receptor superfamily member 17; TNFRSF17
T1 sequence (looked up): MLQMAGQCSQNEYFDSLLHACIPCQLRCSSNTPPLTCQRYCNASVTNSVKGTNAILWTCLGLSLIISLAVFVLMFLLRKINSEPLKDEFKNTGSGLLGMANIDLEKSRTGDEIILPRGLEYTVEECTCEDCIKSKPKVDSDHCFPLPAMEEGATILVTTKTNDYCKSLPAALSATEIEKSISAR

[2] = molecular target: T2, recombinant fusion protein containing the entire extracellular domain of human BCMA (amino acids 1-54) in … (human, UniProt Q02223 1-54); assay: BLI (BLItz), recombinant antibody on the immunising antigen
T2 construct: range 1-54; Expressed in HEK cells; also called BCMA antigen; extracellular BCMA antigen; not shown: rabbit Fc domain
T2 sequence (looked up): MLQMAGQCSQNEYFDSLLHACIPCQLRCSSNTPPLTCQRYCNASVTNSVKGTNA

[3] = molecular target: T1, human B-cell maturation antigen (BCMA); assay: supersensitive IHC on normal colon
[4] = molecular target: T1, human B-cell maturation antigen (BCMA); assay: supersensitive IHC on reactive lymph node
[5] = molecular target: T3, recombinant fusion protein containing the entire intracellular domain of BCMA (amino acids 78-184) (human, UniProt Q02223 78-184); assay: BLI (BLItz), recombinant antibody on the immunising antigen
T3 construct: range 78-184; also called intracellular BCMA antigen; the antigen
T3 sequence (looked up): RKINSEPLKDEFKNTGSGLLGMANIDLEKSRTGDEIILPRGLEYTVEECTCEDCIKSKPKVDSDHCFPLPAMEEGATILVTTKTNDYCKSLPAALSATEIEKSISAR

- binding result [1]: binds
- binding result [2]: binds
B1: anti-human BCMA antibody clone 10A2 (Extracellular) (antibody, V domains shown)
VH: QSVEESGGRLVTPGTPLTLTCTASGFSLTTYAMGWVRQAPGKGLEWIGYIWSSGTTDYASWAKGRFTISKTSPTVDLKMTSPTTEDTATYFCARYINYVTGDLWGQGTLVTVSS
VL: AQVLTQTPSPVSADVGGTVTINCQASQSVYNNVLLAWYQQKAGQPPKLLIYKASTLASGVSSRFKGSGSGTQFTLTISGVQCDDAATYYCQGEFSCSSADCTAFGGGTEVVVKG
notes: Rabbit monoclonal IgG/kappa1; The chains are built here from V + constant entries so that the signal peptide is left out; Supersensitive IHC used B-cell culture supernatant; BLI and standard IHC used recombinant antibody from HEK293-6E cells; also called B cell clone 10A2; BCMA clone 10A2

- binding result [2]: binds
- binding result [3]: binds
B2: anti-human BCMA antibody clone 9H5 (Extracellular) (antibody, V domains shown)
VH: QSLEESGGRLVTPGGSLTLTCTVSGFSLSAYAMSWVRQAPGKGLEWIGYINYDGIAYYTNWAKGRFTISKTSTTVDLKITSPTTEDTAAYFCASDLLGVFNLWGQGTLVTVSS
VL: AAVLTQTASPVSAAVGGTVTINCQASQSVYSNNRLSWFQQKPGQPPKLLIYYASFLASGVPSRFKGSGSGAQFTLTISDLQCDDAATYYCAGGYISYSDNAFGGGTEVVVKG
notes: Rabbit monoclonal IgG/kappa1; The chains are built here from V + constant entries so that the signal peptide is left out; Supersensitive IHC used B-cell culture supernatant; BLI and standard IHC used recombinant antibody from HEK293-6E cells; also called B cell clone 9H5; BCMA clone 9H5

- binding result [4]: binds
- binding result [5]: binds
B3: anti-human BCMA antibody clone 5C1 (intracellular) (antibody, V domains shown)
VH: QSLEESRGGLFKPTDTLTLTCTVSGFSLKTYVINWVRQAPGNGLEWIGIIDTGDMTYYASWAKSRSTITRNTNENTVTLKMTSLTAADTATYFCASGDIWGPGTLVTVSS
VL: AQVLTQTASPVSAAVGGTVTINCQASQSVYSNWLSWFQQKPGQPPKRLIYSASTLASGVSSRFKGSGSGTQFTLTISDVQCDDAATYYCLGEFNCARADCRAFGGGTEVVVKG
notes: Rabbit monoclonal IgG/kappa1; also called B cell clone 5C1; intracellular clone 5C1
